{
  "source": "paper PMC9976900",
  "key": {"pAbp RRM3": {"target": "pAbp RRM3 (Drosophila, UniProt P21187 176-263)", "sequence (P21187 176-263)": "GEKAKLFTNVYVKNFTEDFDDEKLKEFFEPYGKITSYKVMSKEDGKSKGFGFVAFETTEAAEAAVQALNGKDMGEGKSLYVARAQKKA", "experiment": "NMR titration"}, "Unr CSD789 wild type [1]": {"target": "T1, Unr CSD789 wild type (Drosophila, UniProt B7Z0E2 756-990)", "T1 sequence": "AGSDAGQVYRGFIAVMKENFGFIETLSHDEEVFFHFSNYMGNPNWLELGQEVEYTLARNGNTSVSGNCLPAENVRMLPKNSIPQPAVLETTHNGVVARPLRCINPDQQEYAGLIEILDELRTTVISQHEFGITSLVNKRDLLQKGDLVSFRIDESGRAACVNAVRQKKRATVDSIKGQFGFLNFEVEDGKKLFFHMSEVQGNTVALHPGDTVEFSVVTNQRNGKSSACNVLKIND", "experiment": "NMR titration"}, "Unr CSD789 wild type [2]": {"target": "T1, Unr CSD789 wild type", "experiment": "ITC"}, "Unr CSD789 K979A": {"target": "T2, Unr CSD789 K979A (Drosophila, UniProt B7Z0E2 756-990, K979A)", "T2 sequence": "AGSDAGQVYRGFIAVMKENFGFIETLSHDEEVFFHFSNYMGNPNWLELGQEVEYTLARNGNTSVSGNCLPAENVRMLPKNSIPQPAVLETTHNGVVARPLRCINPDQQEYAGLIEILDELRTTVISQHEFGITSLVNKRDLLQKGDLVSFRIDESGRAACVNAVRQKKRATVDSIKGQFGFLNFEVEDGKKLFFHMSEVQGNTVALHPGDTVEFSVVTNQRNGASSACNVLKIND", "experiment": "fluorescence polarization"}, "Unr CSD789 E786A": {"target": "T3, Unr CSD789 E786A (Drosophila, UniProt B7Z0E2 756-990, E786A)", "T3 sequence": "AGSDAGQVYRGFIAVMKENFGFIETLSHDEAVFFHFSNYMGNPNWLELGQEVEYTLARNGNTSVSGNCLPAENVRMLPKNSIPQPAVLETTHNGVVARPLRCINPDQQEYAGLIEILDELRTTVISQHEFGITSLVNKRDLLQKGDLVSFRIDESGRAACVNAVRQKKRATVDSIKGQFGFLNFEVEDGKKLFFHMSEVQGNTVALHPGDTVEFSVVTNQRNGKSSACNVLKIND", "experiment": "fluorescence polarization"}, "Unr CSD789 wild type [3]": {"target": "T1, Unr CSD789 wild type", "experiment": "fluorescence polarization"}, "Unr CSD789 R976A": {"target": "T4, Unr CSD789 R976A (Drosophila, UniProt B7Z0E2 756-990, R976A)", "T4 sequence": "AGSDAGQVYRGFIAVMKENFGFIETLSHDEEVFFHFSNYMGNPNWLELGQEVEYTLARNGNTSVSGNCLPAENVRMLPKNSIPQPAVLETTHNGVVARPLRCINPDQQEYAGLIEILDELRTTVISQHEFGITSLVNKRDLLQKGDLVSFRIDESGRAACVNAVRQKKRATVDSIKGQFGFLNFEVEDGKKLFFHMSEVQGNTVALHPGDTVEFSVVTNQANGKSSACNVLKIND", "experiment": "fluorescence polarization"}, "[4]": {"target": "T5, Unr CSD789 E786A/R856A/P860A (ERPmut) (Drosophila, UniProt B7Z0E2 756-990, E786A;R856A;P860A)", "T5 sequence": "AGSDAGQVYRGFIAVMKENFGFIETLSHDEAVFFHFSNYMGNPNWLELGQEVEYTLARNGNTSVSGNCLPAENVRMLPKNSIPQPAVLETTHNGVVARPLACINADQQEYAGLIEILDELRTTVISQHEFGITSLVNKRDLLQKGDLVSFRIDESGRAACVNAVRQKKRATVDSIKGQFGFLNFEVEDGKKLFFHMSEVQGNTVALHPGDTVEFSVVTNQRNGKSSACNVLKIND", "experiment": "fluorescence polarization"}, "Unr CSD789 N977A": {"target": "T6, Unr CSD789 N977A (Drosophila, UniProt B7Z0E2 756-990, N977A)", "T6 sequence": "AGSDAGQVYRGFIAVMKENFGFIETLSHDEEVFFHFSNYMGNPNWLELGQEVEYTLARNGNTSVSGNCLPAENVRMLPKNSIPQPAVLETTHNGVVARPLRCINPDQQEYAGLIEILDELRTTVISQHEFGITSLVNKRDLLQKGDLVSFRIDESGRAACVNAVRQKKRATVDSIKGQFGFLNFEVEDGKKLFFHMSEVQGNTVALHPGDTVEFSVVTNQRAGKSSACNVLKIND", "experiment": "fluorescence polarization"}, "Unr CSD789 R856A": {"target": "T7, Unr CSD789 R856A (Drosophila, UniProt B7Z0E2 756-990, R856A)", "T7 sequence": "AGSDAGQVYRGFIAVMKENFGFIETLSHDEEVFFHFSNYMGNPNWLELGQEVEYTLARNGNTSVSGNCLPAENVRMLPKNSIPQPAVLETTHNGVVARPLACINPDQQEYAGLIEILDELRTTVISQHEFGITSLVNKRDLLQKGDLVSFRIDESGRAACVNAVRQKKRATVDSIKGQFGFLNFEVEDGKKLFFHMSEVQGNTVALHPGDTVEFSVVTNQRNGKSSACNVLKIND", "experiment": "fluorescence polarization"}, "Unr CSD789 Q975A": {"target": "T8, Unr CSD789 Q975A (Drosophila, UniProt B7Z0E2 756-990, Q975A)", "T8 sequence": "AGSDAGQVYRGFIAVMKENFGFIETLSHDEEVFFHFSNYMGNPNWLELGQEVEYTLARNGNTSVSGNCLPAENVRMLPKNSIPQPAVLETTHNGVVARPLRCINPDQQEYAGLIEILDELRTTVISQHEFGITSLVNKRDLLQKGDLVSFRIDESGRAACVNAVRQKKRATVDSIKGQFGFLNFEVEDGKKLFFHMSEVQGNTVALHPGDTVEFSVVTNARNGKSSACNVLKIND", "experiment": "fluorescence polarization"}, "Unr CSD789 Q868A": {"target": "T9, Unr CSD789 Q868A (Drosophila, UniProt B7Z0E2 756-990, Q898A)", "T9 sequence": "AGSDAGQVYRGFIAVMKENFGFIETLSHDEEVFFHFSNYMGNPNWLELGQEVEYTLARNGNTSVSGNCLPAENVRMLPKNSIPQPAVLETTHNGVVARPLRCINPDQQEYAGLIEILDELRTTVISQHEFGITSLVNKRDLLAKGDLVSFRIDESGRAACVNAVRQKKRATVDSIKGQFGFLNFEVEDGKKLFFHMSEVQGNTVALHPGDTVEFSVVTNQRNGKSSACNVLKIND", "experiment": "fluorescence polarization"}, "Unr CSD789 P860A": {"target": "T10, Unr CSD789 P860A (Drosophila, UniProt B7Z0E2 756-990, P860A)", "T10 sequence": "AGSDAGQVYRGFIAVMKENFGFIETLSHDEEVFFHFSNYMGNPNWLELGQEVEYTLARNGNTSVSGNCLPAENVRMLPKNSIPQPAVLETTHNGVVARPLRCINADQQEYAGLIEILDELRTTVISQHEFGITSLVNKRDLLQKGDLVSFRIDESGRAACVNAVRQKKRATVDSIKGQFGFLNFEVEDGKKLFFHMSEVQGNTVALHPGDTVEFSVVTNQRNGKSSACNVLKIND", "experiment": "fluorescence polarization"}},
  "data": [
    {"binder": "AAAAA (ssRNA)", "note": "[A5-mer]", "values": [
      {"measurement": "binding result", "setting": "pAbp RRM3", "value": "binds"},
      {"measurement": "Kd", "setting": "Unr CSD789 wild type [1]", "value": "127 ± 16.6", "unit": "µM"}
    ]},
    {"binder": "AAAAAAA (ssRNA)", "note": "[A7-mer]", "values": [
      {"measurement": "Kd", "setting": "Unr CSD789 wild type [2]", "value": "17.7 ± 5.2", "unit": "µM"}
    ]},
    {"binder": "AAAAAAAAAAAAAAA (ssRNA)", "note": "[A15-mer, 3' labelled]", "values": [
      {"measurement": "Kd", "setting": "Unr CSD789 K979A", "value": "160 ± 57.6", "unit": "µM"},
      {"measurement": "Kd", "setting": "Unr CSD789 E786A", "value": "50.1 ± 6.4", "unit": "µM"},
      {"measurement": "Kd", "setting": "Unr CSD789 wild type [3]", "value": "21.1 ± 3.6", "unit": "µM"},
      {"measurement": "Kd", "setting": "Unr CSD789 R976A", "value": "161 ± 51.2", "unit": "µM"},
      {"measurement": "Kd", "setting": "[4]", "value": "~94.7", "unit": "µM"},
      {"measurement": "Kd", "setting": "Unr CSD789 N977A", "value": "71.2 ± 12.5", "unit": "µM"},
      {"measurement": "Kd", "setting": "Unr CSD789 R856A", "value": "72.4 ± 11", "unit": "µM"},
      {"measurement": "Kd", "setting": "Unr CSD789 Q975A", "value": "38.2 ± 8.7", "unit": "µM"},
      {"measurement": "Kd", "setting": "Unr CSD789 Q868A", "value": "61 ± 12.1", "unit": "µM"},
      {"measurement": "Kd", "setting": "Unr CSD789 P860A", "value": "67.2 ± 7.9", "unit": "µM"}
    ]},
    {"binder": "AAAAAAAA (ssRNA)", "note": "[A8-mer]", "values": [
      {"measurement": "Kd", "setting": "Unr CSD789 wild type [2]", "value": "4.4 ± 2.7", "unit": "µM"},
      {"measurement": "binding result", "setting": "pAbp RRM3", "value": "binds"}
    ]},
    {"binder": "AAAAAAAAA (ssRNA)", "note": "[A9-mer]", "values": [
      {"measurement": "Kd", "setting": "Unr CSD789 wild type [2]", "value": "4.3 ± 1.3", "unit": "µM"}
    ]},
    {"binder": "AAAAAAAAAAAAAAA (ssRNA)", "note": "[A15-mer]", "values": [
      {"measurement": "Kd", "setting": "Unr CSD789 wild type [2]", "value": "4.8 ± 0.8", "unit": "µM"},
      {"measurement": "Kd", "setting": "Unr CSD789 wild type [1]", "value": "8 ± 1.5", "unit": "µM"}
    ]}
  ]
}
